Source: US20200270125A1 (OMEROS, published 2020)
Positions count from the first letter of the chain named.

What was measured:
[1] = target: T1, human MASP-3 (construct not stated) (human); experiment: ELISA, monovalent Fab
T1 construct: also called MASP-3 antigen
T1 chain: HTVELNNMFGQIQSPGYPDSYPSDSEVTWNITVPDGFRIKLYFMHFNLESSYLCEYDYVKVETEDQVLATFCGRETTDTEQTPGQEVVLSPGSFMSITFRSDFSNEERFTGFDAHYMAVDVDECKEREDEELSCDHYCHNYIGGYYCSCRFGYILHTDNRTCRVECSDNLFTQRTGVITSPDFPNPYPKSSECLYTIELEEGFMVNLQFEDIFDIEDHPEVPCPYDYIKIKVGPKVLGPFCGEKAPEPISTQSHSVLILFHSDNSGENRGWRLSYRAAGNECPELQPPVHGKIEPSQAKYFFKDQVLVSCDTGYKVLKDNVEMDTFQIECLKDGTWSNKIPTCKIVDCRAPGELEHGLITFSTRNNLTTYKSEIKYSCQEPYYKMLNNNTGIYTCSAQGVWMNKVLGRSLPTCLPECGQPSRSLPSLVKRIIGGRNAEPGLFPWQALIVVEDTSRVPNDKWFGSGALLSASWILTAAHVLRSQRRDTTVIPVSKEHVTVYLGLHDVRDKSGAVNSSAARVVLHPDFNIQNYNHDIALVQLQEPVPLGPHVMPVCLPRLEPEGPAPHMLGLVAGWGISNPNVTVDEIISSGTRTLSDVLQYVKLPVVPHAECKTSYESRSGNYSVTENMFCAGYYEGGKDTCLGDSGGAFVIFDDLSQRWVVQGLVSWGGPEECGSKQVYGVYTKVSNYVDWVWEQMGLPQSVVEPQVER

[2] = target: T2, recombinant human MASP-2 (CCP1-CCP2-SP fragment) (human, UniProt O00187 298-686, limits assumed); experiment: ELISA: recombinant MASP-2 (CCP1-CCP2-SP) coated directly on the plate, A450
T2 construct: domain: CCP1-CCP2-SP fragment
T2 sequence (O00187 298-686 limits assumed): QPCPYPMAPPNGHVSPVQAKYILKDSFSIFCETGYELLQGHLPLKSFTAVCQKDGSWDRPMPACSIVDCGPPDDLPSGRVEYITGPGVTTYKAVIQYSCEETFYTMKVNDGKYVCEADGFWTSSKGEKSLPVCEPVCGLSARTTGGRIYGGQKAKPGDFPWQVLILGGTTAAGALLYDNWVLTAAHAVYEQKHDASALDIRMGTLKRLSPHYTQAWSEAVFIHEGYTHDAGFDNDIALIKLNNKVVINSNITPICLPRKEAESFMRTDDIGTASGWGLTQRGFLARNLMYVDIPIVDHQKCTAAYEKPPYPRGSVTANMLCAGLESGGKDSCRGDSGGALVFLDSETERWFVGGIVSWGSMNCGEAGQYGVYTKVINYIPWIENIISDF
Procedure: (§1) The plate was then washed (PBS-T, 0.05%) and the candidate MASP-3 antibodies were added followed by incubation for one hour at room temperature. The plate was washed (PBS-T, 0.05%) and a detection antibody was added (mouse anti-human kappa-HRP, SouthernBiotech #9230-05) for one hour at room temperature. After another wash (PBS-T, 0.05%) the plate was developed (5 minutes) with OPT EIA TMB (BD Biosciences #555214). Absorbance reading at A450 was measured using the Spectramax M5e plate reader.

[3] = target: T3, human MASP-3 CCP1-CCP2-SP fragment (human); experiment: sandwich ELISA, MASP-3 CCP1-CCP2-SP captured by αM3-259
T3 construct: limits of the assay construct are not restated; also called rMASP-3 (CCP1-CCP2-SP)
T3 chain: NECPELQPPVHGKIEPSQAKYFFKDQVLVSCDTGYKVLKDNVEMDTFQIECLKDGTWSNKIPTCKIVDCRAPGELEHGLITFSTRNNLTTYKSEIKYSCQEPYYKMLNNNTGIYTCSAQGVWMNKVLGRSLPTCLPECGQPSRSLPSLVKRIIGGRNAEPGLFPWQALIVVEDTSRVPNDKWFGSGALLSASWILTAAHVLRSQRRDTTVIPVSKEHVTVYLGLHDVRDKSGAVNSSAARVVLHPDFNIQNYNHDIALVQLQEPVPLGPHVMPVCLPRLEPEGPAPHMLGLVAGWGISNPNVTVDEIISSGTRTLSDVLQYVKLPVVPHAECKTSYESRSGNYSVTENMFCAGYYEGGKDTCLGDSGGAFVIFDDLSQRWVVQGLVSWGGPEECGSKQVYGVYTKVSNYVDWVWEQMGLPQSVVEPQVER
Procedure: as §1

[4] = target: T4, recombinant full-length mouse MASP-3 (mouse); experiment: sandwich ELISA, full-length mouse MASP-3 captured by αM3-259
T4 construct: Entry is with leader; also called mouse full length MASP-3
T4 chain: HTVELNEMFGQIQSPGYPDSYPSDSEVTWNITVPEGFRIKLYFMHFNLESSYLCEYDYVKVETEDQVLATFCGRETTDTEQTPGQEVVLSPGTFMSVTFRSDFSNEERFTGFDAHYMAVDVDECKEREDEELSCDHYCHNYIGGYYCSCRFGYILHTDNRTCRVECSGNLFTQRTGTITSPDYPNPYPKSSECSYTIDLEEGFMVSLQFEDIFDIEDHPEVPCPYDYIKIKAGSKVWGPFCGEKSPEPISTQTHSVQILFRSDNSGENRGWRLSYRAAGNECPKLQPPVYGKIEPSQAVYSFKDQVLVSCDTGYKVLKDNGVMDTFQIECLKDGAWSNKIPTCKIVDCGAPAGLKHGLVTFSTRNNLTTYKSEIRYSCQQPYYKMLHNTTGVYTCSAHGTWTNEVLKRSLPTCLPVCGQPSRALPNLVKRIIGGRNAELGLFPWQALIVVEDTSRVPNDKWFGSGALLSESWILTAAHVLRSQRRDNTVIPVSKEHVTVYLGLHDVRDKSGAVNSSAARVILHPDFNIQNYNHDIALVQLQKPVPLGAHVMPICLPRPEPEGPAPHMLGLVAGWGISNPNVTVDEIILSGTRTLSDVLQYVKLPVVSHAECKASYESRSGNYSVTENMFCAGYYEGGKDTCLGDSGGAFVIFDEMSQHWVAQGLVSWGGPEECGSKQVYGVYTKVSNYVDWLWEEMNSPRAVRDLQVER
Procedure: as §1

[5] = target: T5, recombinant human MASP-1A (S646A, CCP1-CCP2-SP fragment) (human, UniProt P48740 298-699, limits assumed); experiment: ELISA: recombinant MASP-1A (S646A, CCP1-CCP2-SP) coated directly on the plate, A450
T5 chain: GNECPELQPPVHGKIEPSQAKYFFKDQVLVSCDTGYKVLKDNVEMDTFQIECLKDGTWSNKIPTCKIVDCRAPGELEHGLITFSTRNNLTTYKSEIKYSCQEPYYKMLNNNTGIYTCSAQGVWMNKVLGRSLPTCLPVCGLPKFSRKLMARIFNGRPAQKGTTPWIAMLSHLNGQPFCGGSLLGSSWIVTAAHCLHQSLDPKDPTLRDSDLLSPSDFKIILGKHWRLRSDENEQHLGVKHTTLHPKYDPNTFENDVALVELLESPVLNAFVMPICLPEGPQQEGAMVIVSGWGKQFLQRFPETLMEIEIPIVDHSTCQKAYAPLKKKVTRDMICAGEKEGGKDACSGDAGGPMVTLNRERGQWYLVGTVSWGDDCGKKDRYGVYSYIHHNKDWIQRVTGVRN
Procedure: as §1

[6] = target: T1, human MASP-3 (construct not stated); experiment: not described at this place

B1: h10D12-45-21-DA Fab (VH-45 and VL-21-DA) (Fab, V domains shown)
VH: QIQLVQSGSELKKPGASVKVSCKASGYIFTSYGMSWVRQAPGKGLKWMGWINTYSGVPTYADDFKGRFVFSLDTSVRTPYLQISSLKAEDTAVYFCARGGEAMDYWGQGTLVTVSS
VL: DVLMTQTPLSLSVTPGQPASISCKSSQSLLDSAGKTYLNWLLQRPGQSPKRLIYLVSKLDSGVPDRFSGSGSGTDFTLKISRVEAEDVGVYYCWQGTHFPWTFGQGTKVEIKR
notes: also called 10D12-DA mutant
[1]
  EC50: 0.294 nM

B2: h10D12-45-21-DE Fab (VH-45 and VL-21-DE) (Fab, V domains shown)
VH: B1 VH
VL: B1 VL with A33E
notes: also called 10D12-DE mutant
[1]
  EC50: 0.326 nM

B3: h10D12-45-21-GA Fab (VH-45 and VL-21-GA) (Fab, V domains shown)
VH: B1 VH
VL: B1 VL with A33D, G34A
notes: Humanized monovalent Fab; also called 10D12-GA mutant
[1]
  EC50: 0.181 nM

B4: MASP-3 mAb 11B6 (mouse-human chimeric IgG4) (antibody, V domains shown)
VH: QVQLKQSGAELVKPGASVKMSCKASGYTFTTYPIEWMKQNHGKSLEWIGNFHPYNGDSKYNEKFKGKATLTVEKSSSTVYLELSRLPSADSAIYYCARRHYAASPWFAHWGQGTLVTVSS
VL: DIVMTQSQKFMSTSVGDRVNVTCKASQNVGPTVAWYQQKPGQSPKALIYSASYRYSGVPDRFTGSGSGTDFTLTISNVHSEDLAEYFCQQYNSYPFTFGSGTKLEIKR
[2]
  binding result: no binding (tested: about 20 nM (log10 about 1.3))
[3]
  EC50: 0.06 nM
[4]
  EC50: 0.066 nM
[5]
  binding result: no binding (tested: about 20 nM (log10 about 1.3))
[6]
  binding affinity: ≤ 500 pM

B5: MASP-3 mAb 15D9 (mouse-human chimeric IgG4) (antibody, V domains shown)
VH: QVQLKQSGTELMKPGASVNLSCKASGYTFTAYWIEWVKQRPGHGLEWIGEILPGSGTTNYNENFKDRATFTADTSSNTAYMQLSSLTSEDSAIYYCARSYYYASRWFAFWGQGTLVTVSS
VL: B4 VL with V15I, N20S, K24R, T32N, V33L, Y55F, H79Q, S93R
[2]
  binding result: no binding (tested: about 20 nM (log10 about 1.3))
[3]
  EC50: 0.074 nM
[4]
  EC50: 0.092 nM
[5]
  binding result: no binding (tested: about 20 nM (log10 about 1.3))
[6]
  binding affinity: ≤ 500 pM

B6: MASP-3 mAb 1B11 (mouse-human chimeric IgG4) (antibody, V domains shown)
VH: QVQLKQSGAELVRPGASVKLSCKASGYTFTDYYINWVKQRPGQGLEWIARIYPGSGNTYYNEKFKGKATLTAEKSSSTAYMQLSSLTSEDSAVYFCARNYYISSPWFAYWGQGTLVTVSS
VL: B4 VL with N20S, T32N, H79Q, E85D, S93R, F96L, S100A, I106L
[2]
  binding result: no binding (tested: about 20 nM (log10 about 1.3))
[3]
  EC50: 0.059 nM
[4]
  EC50: 1.1 nM
[5]
  binding result: no binding (tested: about 20 nM (log10 about 1.3))
[6]
  binding affinity: ≤ 500 pM

B7: MASP-3 mAb 1E7 (mouse-human chimeric IgG4) (antibody, V domains shown)
VH: QVQLKQSGPELARPWASVKISCQAFYTFSRRVHFAIRDTNYWMQWVKQRPGQGLEWIGAIYPGNGDTSYNQKFKGKATLTADKSSSTAYMQLSSLTSEDSAVYYCASGSHYFDYWGQGTTLTVSS
VL: DIQLTQSPAILSVSPGERVSFSCRASQSIGTSIHWYQQRTNGSPRLLIKYASESISGIPSRFSGSGSGTDFTLSINSVESEDIADYYCQQSNSWPYTFGGGTKLEIKR
[3]
  EC50: 0.112 nM
[4]
  EC50: 117 nM
[6]
  binding affinity: ≤ 500 pM

B8: h4D5-19-1-NA Fab (VH-19 and VL-1-NA) (Fab, V domains shown)
VH: QVQLVQSGAEVKKPGASVKVSCKASGYTFTTDDINWVRQAPGQGLEWIGWIYPRDDRTKYNDKFKDRATLTVDTSSNTAYMELSSLRSEDTAVYYCSSLEDTYWGQGTLVTVSS
VL: DIVMTQSPDSLAVSLGERATINCKSSQSLLASRTRKNYLAWYQQKPGQPPKLLIYWASTRESGVPDRFSGSGSGTDFTLTISSLQAEDVAVYYCKQSYNLYTFGQGTKVEIKR
notes: Humanized monovalent Fab; also called 4D5-NA mutant
[1]
  EC50: 0.122 nM

B9: h13B1_10-1-NA Fab (VH-10 and VL-1-NA) (Fab, V domains shown)
VH: QVQLVQSGAEVKKPGASVKVSCKASGYTFTGKWIEWVRQAPGQGLEWIGEILPGTGSTNYNEKFKGRATFTADSSTSTAYMELSSLRSEDTAVYYCLRSEDVWGQGTLVTVSS
VL: B8 VL with L100I, Y101P
notes: Humanized monovalent Fab; also called 13B1-NA
[1]
  EC50: 0.105 nM

B10: h4D5-19-1-ST Fab (VH-19 and VL-1-ST) (Fab, V domains shown)
VH: B8 VH
VL: B8 VL with A31N, S32T
notes: also called 4D5-ST mutant
[1]
  EC50: 0.151 nM

B11: h4D5-19-1-NQ Fab (VH-19 and VL-1-NQ) (Fab, V domains shown)
VH: B8 VH
VL: B8 VL with A31Q
notes: also called 4D5-NQ mutant
[1]
  EC50: 0.732 nM

B12: MASP-3 mAb 35C1 (mouse-human chimeric IgG4) (antibody, V domains shown)
VH: QIQLVQSGPELKTPGETVKISCKASGYIFTSYGITWVKQAPGKGLKWMGWINTYSGVPTYADDFKGRFAFSLETSASTAYLQINNLKNEDTTTYFCTRGGDALDYWGQGTSVTVSS
VL: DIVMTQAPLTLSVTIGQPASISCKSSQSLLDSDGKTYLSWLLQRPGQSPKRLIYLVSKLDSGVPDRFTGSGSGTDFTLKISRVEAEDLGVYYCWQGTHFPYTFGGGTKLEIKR
[2]
  binding result: no binding (tested: about 20 nM (log10 about 1.3))
[3]
  EC50: 0.091 nM
[4]
  EC50: 0.209 nM
[5]
  binding result: no binding (tested: about 20 nM (log10 about 1.3))
[6]
  binding affinity: ≤ 500 pM

B13: MASP-3 mAb 49C11 (mouse-human chimeric IgG4) (antibody, V domains shown)
VH: EVQLQQSGPVLVKPGASGKMSCKASGYKFTDYYMIWVKQSHGKSLEWIGVIKIYNGGTSYNQKFKGKATLTVDKSSSTAYMELNSLTSEDSAVYYCARGPSLYDYDPYWYFDVWGTGTTVTVSS
VL: DVLMTQTPLSLPVSLGDQASFSCRSSQSLIHSNGNTYLHWYLQKPGQSPKLLIYKVSNRFSGVPDRFSGSGSGTDFTLKISRVEAEDLGVYFCSQSTHVPWTFGGGTKLEIKR
[2]
  binding result: no binding (tested: about 20 nM (log10 about 1.3))
[3]
  EC50: 0.069 nM
[4]
  EC50: 0.064 nM
[5]
  binding result: no binding (tested: about 20 nM (log10 about 1.3))
[6]
  binding affinity: ≤ 500 pM
